Data published in PMC4720525.

Target: YY1 (Mus musculus, UniProt Q00899 1-414)
Assay: EMSA

YY1, sequence (Q00899 whole entry): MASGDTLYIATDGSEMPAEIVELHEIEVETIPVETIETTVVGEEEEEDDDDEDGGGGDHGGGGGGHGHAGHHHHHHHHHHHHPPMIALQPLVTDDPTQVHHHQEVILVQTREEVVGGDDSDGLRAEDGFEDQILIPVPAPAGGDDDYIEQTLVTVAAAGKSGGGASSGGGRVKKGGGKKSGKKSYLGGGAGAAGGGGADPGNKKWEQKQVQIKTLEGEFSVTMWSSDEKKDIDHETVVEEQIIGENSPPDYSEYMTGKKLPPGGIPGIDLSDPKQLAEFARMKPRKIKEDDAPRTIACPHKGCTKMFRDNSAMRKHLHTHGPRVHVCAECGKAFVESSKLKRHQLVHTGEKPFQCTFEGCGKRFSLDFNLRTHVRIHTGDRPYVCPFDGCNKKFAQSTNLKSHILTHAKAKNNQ

B1: Arid1a promoter 30-bp DNA (dsDNA)
DNA 1: CTCTTCTCTCTTAAAATGGCTGCCTGTCTG
DNA 2: CAGACAGGCAGCCATTTTAAGAGAGAAGAG
binding result: binds
